Results on seven sequences are retold here after the supplement of paper PMC5998384.

Series [1] has as its system HeLa Kyoto. As to the kind of experiment: solubility in G1/S (NP-40 vs SDS abundance) (log2 ratio); higher = more soluble. As to conditions: cell cycle stage: G1/S.
For series [2], the system named is HeLa Kyoto. Put plainly: melting temperature (median over replicates), in situ; higher = more thermally stable.
The test system of series [3] is HeLa Kyoto. Put plainly: solubility change mitosis vs G1/S (difference of NP-40 vs SDS log2 ratios) (log2 ratio difference); higher = more soluble in mitosis.
Series [4] concerns HeLa Kyoto. As to the kind of experiment: thermal stability score vs G1/S (z-score of summed log2 fold changes over temperatures); higher = more thermally stable than in G1/S.
Where [5] appears, read: cell cycle stage: early G1 (4.5 h after nocodazole release).
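Throughout, for melting temperature (median over replicates), in situ: HeLa Kyoto cells synchronized by double thymidine or nocodazole block, proteins quantified by TMT10plex mass spectrometry, three independent biological replicates.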
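Throughout, for solubility change mitosis vs G1/S (difference of NP-40 vs SDS log2 ratios): synchronized HeLa Kyoto cells (double thymidine block for G1/S, nocodazole release for mitosis), protein amounts in NP-40 versus SDS lysates quantified by mass spectrometry, three biological replicates.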
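Throughout, for solubility in G1/S (NP-40 vs SDS abundance): HeLa Kyoto cells arrested at G1/S by double thymidine block, proteins quantified by TMT10plex mass spectrometry in mild NP-40 versus SDS extracts, three biological replicates.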
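Throughout, for thermal stability score vs G1/S (z-score of summed log2 fold changes over temperatures): synchronized HeLa Kyoto cells, proteins quantified by TMT10plex mass spectrometry, three biological replicates, mitosis taken 0.5 h after nocodazole release, G1/S directly after double thymidine block.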

Consider “MASLDRVKVLVLGDSGVGKSSLVHLLCQNQVLGNPSWTVGCSVDVRVHDYKEGTPEEKTYYIELWDVGGSVGSASSVKSTRAVFYNSVNGIIFVHDLTNKKSSQNLRRWSLEALNRDLVPTGVLVTNGDYDQEQFADNQIPLLVIGTKLDQIHETKRHEVLTRTAFLAEDFNPEEINLDCTNPRYLAAGSSNAVKLSRFFDKVIEKRYFLREGNQIPGFPDRKRFGAGTLKSLHYD [RABL3]”, for which the “solubility in G1/S (log2)” value in series [1] turned out to be 0.0735. Further, the melting temperature in series [2] (cell cycle stage: G1/S) was 52 °C; in series [2] (cell cycle stage: mitosis), 51.9 °C. Moreover, the “solubility change mitosis (log2)” value in series [3] is -0.0274. Besides, the figures for the thermal stability score in series [4] (setting [5]) and in series [4] (cell cycle stage: mitosis) were -0.0942 and -1.09, respectively.
For the sequence “MASLSLAPVNIFKAGADEERAETARLTSFIGAIAIGDLVKSTLGPKGMDKILLSSGRDASLMVTNDGATILKNIGVDNPAAKVLVDMSRVQDDEVGDGTTSVTVLAAELLREAESLIAKKIHPQTIIAGWREATKAAREALLSSAVDHGSDEVKFRQDLMNIAGTTLSSKLLTHHKDHFTKLAVEAVLRLKGSGNLEAIHIIKKLGGSLADSYLDEGFLLDKKIGVNQPKRIENAKILIANTGMDTDKIKIFGSRVRVDSTAKVAEIEHAEKEKMKEKVERILKHGINCFINRQLIYNYPEQLFGAAGVMAIEHADFAGVERLALVTGGEIASTFDHPELVKLGSCKLIEEVMIGEDKLIHFSGVALGEACTIVLRGATQQILDEAERSLHDALCVLAQTVKDSRTVYGGGCSEMLMAHAVTQLANRTPGKEAVAMESYAKALRMLPTIIADNAGYDSADLVAQLRAAHSEGNTTAGLDMREGTIGDMAILGITESFQVKRQVLLSAAEAAEVILRVDNIIKAAPRKRVPDHHPC [CCT2]”, in series [1], the “solubility in G1/S (log2)” value came to 0.193. For the same sequence, the melting temperature in series [2] (cell cycle stage: G1/S) was determined as 54.1 °C; in series [2] (cell cycle stage: mitosis) it was 53.1 °C. Besides, in series [3], the “solubility change mitosis (log2)” value was -0.0739. The thermal stability score was -0.324 in series [4] (setting [5]) and -1.07 in series [4] (cell cycle stage: mitosis).
On to “MASPGCLWLLAVALLPWTCASRALQHLDPPAPLPLVIWHGMGDSCCNPLSMGAIKKMVEKKIPGIYVLSLEIGKTLMEDVENSFFLNVNSQVTTVCQALAKDPKLQQGYNAMGFSQGGQFLRAVAQRCPSPPMINLISVGGQHQGVFGLPRCPGESSHICDFIRKTLNAGAYSKVVQERLVQAEYWHDPIKEDVYRNHSIFLADINQERGINESYKKNLMALKKFVMVKFLNDSIVDPVDSEWFGFYRSGQAKETIPLQETSLYTQDRLGLKEMDNAGQLVFLATEGDHLQLSEEWFYAHIIPFLG [PPT1]”, for which the “solubility in G1/S (log2)” value in series [1] stood at 0.426. Further, the values for the melting temperature in series [2] (cell cycle stage: G1/S) and in series [2] (cell cycle stage: mitosis) were 55.1 °C and 55.2 °C, respectively. Also, the “solubility change mitosis (log2)” value in series [3] is -0.105. Moreover, the thermal stability score was 0.0933 in series [4] (setting [5]) and -1.67 in series [4] (cell cycle stage: mitosis).
For “MASPGIEVELLGKGHSDLGEVAPEIKASERRTAVAIADLEWREMEGDDCEFRYGDGTNEAQDNDFPTVERSRLQEMLSLLGLETYQVQKLSLQDSLQISFDSMKNWAPQVPKDLPWNFLRKLQALNADARNTTMVLDVLPDARPVEKESQMEEEIIYWDPADDLAADIYSFSELPTPDTPVNPLDLLCALLLSSDSFLQQEIALKMALCQFALPLVLPDSENHYHTFLLWAMRGIVRTWWSQPPRGMGSFREDSVVLSRAPAFAFVRMDVSSNSKSQLLNAVLSPGHRQWDCFWHRDLNLGTNAREISDGLVEISWFFPSGREDLDIFPEPVAFLNLRGDIGSHWLQFKLLTEISSAVFILTDNISKKEYKLLYSMKESTTKYYFILSPYRGKRNTNLRFLNKLIPVLKIDHSHVLVKVSSTDSDSFVKRIRAIVGNVLRAPCRRVSVEDMAHAARKLGLKVDEDCEECQKAKDRMERITRKIKDSDAYRRDELRLQGDPWRKAAQVEKEFCQLQWAVDPPEKHRAELRRRLLELRMQQNGHDPSSGVQEFISGISSPSLSEKQYFLRWMEWGLARVAQPRLRQPPETLLTLRPKHGGTTDVGEPLWPEPLGVEHFLREMGQFYEAESCLVEAGRLPAGQRRFAHFPGLASELLLTGLPLELIDGSTLSMPVRWVTGLLKELHVRLERRSRLVVLSTVGVPGTGKSTLLNTMFGLRFATGKSCGPRGAFMQLITVAEGFSQDLGCDHILVIDSGGLIGGALTSAGDRFELEASLATLLMGLSNVTVISLAETKDIPAAILHAFLRLEKTGHMPNYQFVYQNLHDVSVPGPRPRDKRQLLDPPGDLSRAAAQMEKQGDGFRALAGLAFCDPEKQHIWHIPGLWHGAPPMAAVSLAYSEAIFELKRCLLENIRNGLSNQNKNIQQLIELVRRL [URGCP]”, in series [1], the “solubility in G1/S (log2)” value is -0.246. The figures for the melting temperature in series [2] (cell cycle stage: G1/S) and in series [2] (cell cycle stage: mitosis) were 49.3 °C and 49.8 °C, respectively. The “solubility change mitosis (log2)” value in series [3] was -0.0805. For the same sequence, the thermal stability score in series [4] (setting [5]) came to 0.429; in series [4] (cell cycle stage: mitosis), 0.88.
Consider “MASPSRRLQTKPVITCFKSVLLIYTFIFWITGVILLAVGIWGKVSLENYFSLLNEKATNVPFVLIATGTVIILLGTFGCFATCRASAWMLKLYAMFLTLVFLVELVAAIVGFVFRHEIKNSFKNNYEKALKQYNSTGDYRSHAVDKIQNTLHCCGVTDYRDWTDTNYYSEKGFPKSCCKLEDCTPQRDADKVNNEGCFIKVMTIIESEMGVVAGISFGVACFQLIGIFLAYCLSRAITNNQYEIV [TSPAN6]”, for which the “solubility in G1/S (log2)” value in series [1] is -0.201. In addition, the melting temperature in series [2] (cell cycle stage: G1/S) came to 58.9 °C; in series [2] (cell cycle stage: mitosis), 55.8 °C. Besides, in series [3], the “solubility change mitosis (log2)” value amounted to 2.55e-05. Besides, the thermal stability score was 0.413 in series [4] (setting [5]) and -2.28 in series [4] (cell cycle stage: mitosis).
Consider “MASPVAAQAGKLLRALALRPRFLAAGSQAVQLTSRRWLNLQEYQSKKLMSDNGVRVQRFFVADTANEALEAAKRLNAKEIVLKAQILAGGRGKGVFNSGLKGGVHLTKDPNVVGQLAKQMIGYNLATKQTPKEGVKVNKVMVAEALDISRETYLAILMDRSCNGPVLVGSPQGGVDIEEVAASNPELIFKEQIDIFEGIKDSQAQRMAENLGFVGPLKSQAADQITKLYNLFLKIDATQVEVNPFGETPEGQVVCFDAKINFDDNAEFRQKDIFAMDDKSENEPIENEAAKYDLKYIGLDGNIACFVNGAGLAMATCDIIFLNGGKPANFLDLGGGVKEAQVYQAFKLLTADPKVEAILVNIFGGIVNCAIIANGITKACRELELKVPLVVRLEGTNVQEAQKILNNSGLPITSAIDLEDAAKKAVASVAKK [SUCLG2]”, for which the “solubility in G1/S (log2)” value in series [1] turned out to be 0.383. The values for the melting temperature in series [2] (cell cycle stage: G1/S) and in series [2] (cell cycle stage: mitosis) were 51.3 °C and 51.2 °C, respectively. The “solubility change mitosis (log2)” value in series [3] is -0.104. The thermal stability score came out at 0.0772 in series [4] (setting [5]) and 0.0477 in series [4] (cell cycle stage: mitosis).
As to “MASQPPPPPKPWETRRIPGAGPGPGPGPTFQSADLGPTLMTRPGQPALTRVPPPILPRPSQQTGSSSVNTFRPAYSSFSSGYGAYGNSFYGGYSPYSYGYNGLGYNRLRVDDLPPSRFVQQAEESSRGAFQSIESIVHAFASVSMMMDATFSAVYNSFRAVLDVANHFSRLKIHFTKVFSAFALVRTIRYLYRRLQRMLGLRRGSENEDLWAESEGTVACLGAEDRAATSAKSWPIFLFFAVILGGPYLIWKLLSTHSDEVTDSINWASGEDDHVVARAEYDFAAVSEEEISFRAGDMLNLALKEQQPKVRGWLLASLDGQTTGLIPANYVKILGKRKGRKTVESSKVSKQQQSFTNPTLTKGATVADSLDEQEAAFESVFVETNKVPVAPDSIGKDGEKQDL [PEX13]”, the “solubility in G1/S (log2)” value in series [1] was -0.182. The melting temperature stood at 53.5 °C in series [2] (cell cycle stage: G1/S) and 53.4 °C in series [2] (cell cycle stage: mitosis). For the same sequence, in series [3], the “solubility change mitosis (log2)” value worked out at 0.116. In addition, the thermal stability score in series [4] (setting [5]) is -2.51; in series [4] (cell cycle stage: mitosis) it was -2.78.
